{"source": "IntAct's records for PubMed 26031419", "parents": {"B1": {"name": "Glucocorticoid receptor (Homo sapiens), P04150-1 (parent)", "chain": "MDSKESLTPGREENPSSVLAQERGDVMDFYKTLRGGATVKVSASSPSLAVASQSDSKQRRLLVDFPKGSVSNAQQPDLSKAVSLSMGLYMGETETKVMGNDLGFPQQGQISLSSGETDLKLLEESIANLNRSTSVPENPKSSASTAVSAAPTEKEFPKTHSDVSSEQQHLKGQTGTNGGNVKLYTTDQSTFDILQDLEFSSGSPGKETNESPWRSDLLIDENCLLSPLAGEDDSFLLEGNSNEDCKPLILPDTKPKIKDNGDLVLSSPSNVTLPQVKTEKEDFIELCTPGVIKQEKLGTVYCQASFPGANIIGNKMSAISVHGVSTSGGQMYHYDMNTASLSQQQDQKPIFNVIPPIPVGSENWNRCQGSGDDNLTSLGTLNFPGRTVFSNGYSSPSMRPDVSSPPSSSSTATTGPPPKLCLVCSDEASGCHYGVLTCGSCKVFFKRAVEGQHNYLCAGRNDCIIDKIRRKNCPACRYRKCLQAGMNLEARKTKKKIKGIQQATTGVSQETSENPGNKTIVPATLPQLTPTLVSLLEVIEPEVLYAGYDSSVPDSTWRIMTTLNMLGGRQVIAAVKWAKAIPGFRNLHLDDQMTLLQYSWMFLMAFALGWRSYRQSSANLLCFAPDLIINEQRMTLPCMYDQCKHMLYVSSELHRLQVSYEEYLCMKTLLLLSSVPKDGLKSQELFDEIRMTYIKELGKAIVKREGNSSQNWQRFYQLTKLLDSMHEVVENLLNYCFQTFLDKTMSIEFPEMLAEIITNQIPKYSNGNIKKLLFHQK"}}}
{"variants_of": "B1", "details": "with ncoa2_mouse Ncoa2, Q61026"}
{"variant": "H726R", "effect of a mutation on the interaction": "with no effect"}
{"variants_of": "B1", "details": "with ncoa2_mouse Ncoa2, Q61026", "remark": "another data set of the same source"}
{"variant": "H726R", "effect of a mutation on the interaction": "decreasing interaction strength"}
